# Values quoted from earlier work in article PMC5040959.
# Biological target: Glu286 (UniProt position 286, FFGHPEVYIIV)
# Experiment: kinetics
# Conditions: fully reduced CytcO reacting with O2, F -> O step
substance,measurement,value
"Cytochrome c oxidase (cytochrome aa3), subunit I (Rhodobacter sphaeroides)",pKa,~9
